Source: patent US20170137818, “APTAMER INHIBITING BIOLOGICAL ACTIVITY OF AUTOTAXIN BY BINDING WITH AUTOTAXIN, AND USE THEREOF” (RIBOMIC INC., published 2017)

B1: 12(25) (ssDNA)
DNA: CCTGGACGGAACCAGAATACTTTTGGTCTCCAGG
modifications: 2'-OMe C1,C2,T3,G4,G5,C7,G9,C12,C13,A14,G15,T18,A19,C20,A32,G33,G34; 5' idT, 3' idT
B2: SEQ 20 aptamer (ssDNA)
DNA: ACACTCACAGGCGCTGGGGTACGCTCGGAACCGAGGCAATTGGTCAGCGTGCATGGCCGCTAGT
B3: SEQ 22 aptamer (ssDNA)
DNA: ACACTCACAGGCGCTGGCCGGAACCGTGCATATGGTCGCCAGCACATCGTGCATGGCCGCTAGT
B4: SEQ 5 aptamer (ssDNA)
DNA: GTGGTCTAGCTGTACTCATGGACGGAACCAGAATACTTTTGGTCTCCATTGAGTACGCCACAGTCAACGAGCTA
B5: SEQ 10 aptamer (ssDNA)
DNA: GTGGTCTAGCTGTACTCGCCGGAACCGTACTATGGTCGCGTTGTATGACGCTTGTATCCACAGTCAACGAGCTA
B6: SEQ 25 aptamer (ssDNA)
DNA: ACACTCACAGGCGCTGGCGACGTCGGAACCGTGTACCATGGTCACGTCGTGCATGGCCGCTAGT
B7: SEQ 21 aptamer (ssDNA)
DNA: ACACTCACAGGCGCTGGCCACCACTGCACCGGAACCGCGAATGTGGTCGTGCATGGCCGCTAGT
B8: SEQ 6 aptamer (ssDNA)
DNA: GTGGTCTAGCTGTACTCGGAACCGTACTCAACGGTCAGTACCTTTGCGCCGCAGCAAGCCACAGTCAACGAGCTA
B9: SEQ 23 aptamer (ssDNA)
DNA: ACACTCACAGGCGCTGGCACGGACCGGAACCGGGACGCTCGGTCGACCGTGCATGGCCGCTAGT
B10: SEQ 24 aptamer (ssDNA)
DNA: ACACTCACAGGCGCTGGCGAGTCGGAACCGAGCCGATTGGTCACTCGCGTGCATGGCCGCTAGT
B11: SEQ 4 aptamer (ssDNA)
DNA: GTGGTCTAGCTGTACTCTCCGGAACCAGAGCAATTTGGTCGAGCGCTATCGGATGGTCCACAGTCAACGAGCTA
B12: SEQ 9 aptamer (ssDNA)
DNA: GTGGTCTAGCTGTACTCAGGCCGGAACCGGTGAAATTGGTCGCCTAATAAGCGAAATCCACAGTCAACGAGCTA

The binders below were run against autotaxin (endogenous, human pooled serum) (Homo sapiens, UniProt Q13822 Q13822:36-863) (assay: inhibition; LPA production in serum, 5.0 uM).

Binder	activity [% inhibition]
CCTGGACGGAACCAGAATACTTTTGGTCTCCAGG (ssDNA, 2'-OMe C7) [12(12)]	94
CCTGGACGGAACCAGAATACTTTTGGTCTCCAGG (ssDNA, 2'-OMe C1) [12(41)]	85
CCTGGACGGAACCAGAATACTTTTGGTCTCCAGG (ssDNA, 2'-OMe G8) [12(13)]	74
CCTGGACGGAACCAGAATACTTTTGGTCTCCAGG (ssDNA, 2'-OMe T27) [12(11)]	38
CCTGGACGGAACCAGAATACTTTTGGTCTCCAGG (ssDNA, 2'-OMe C30) [12(37)]	85
CCTGGACGGAACCAGAATACTTTTGGTCTCCAGG (ssDNA, 2'-OMe C28) [12(26)]	35
CCTGGACGGAACCAGAATACTTTTGGTCTCCAGG (ssDNA, 2'-OMe T21) [12(20)]	76
CCTGGACGGAACCAGAATACTTTTGGTCTCCAGG (ssDNA, 2'-OMe A11) [12(10)]	26
B1	84
CCTGGACGGAACCAGAATACTTTTGGTCTCCAGG (ssDNA, 2'-OMe G4) [12(35)]	82
CCTGGACGGAACCAGAATACTTTTGGTCTCCAGG (ssDNA, 2'-OMe G4,G5) [12(21)]	84
CCTGGACGGAACCAGAATACTTTTGGTCTCCAGG (ssDNA, 2'-OMe A10) [12(15)]	68
CCTGGACGGAACCAGAATACTTTTGGTCTCCAGG (ssDNA, 2'-OMe T23) [12(34)]	55
CCTGGACGGAACCAGAATACTTTTGGTCTCCAGG (ssDNA, 2'-OMe A17) [12(16)]	83
CCTGGACGGAACCAGAATACTTTTGGTCTCCAGG (ssDNA, 2'-OMe T22) [12(28)]	64
CCTGGACGGAACCAGAATACTTTTGGTCTCCAGG (ssDNA, 2'-OMe G25,G26) [12(6)]	63
CCTGGACGGAACCAGAATACTTTTGGTCTCCAGG (ssDNA, 2'-OMe C30,C31) [12(2)]	80
CCTGGACGGAACCAGAATACTTTTGGTCTCCAGG (ssDNA, 2'-OMe A6) [12(8)]	69
CCTGGACGGAACCAGAATACTTTTGGTCTCCAGG (ssDNA, 2'-OMe C13) [12(32)]	85
CCTGGACGGAACCAGAATACTTTTGGTCTCCAGG (ssDNA, 5' 40 kDa PEG (GL2-400GS2) via ssH linker, 3' idT) [12(23)]	90

Binder	activity [% inhibition]
CCTGGACGGAACCAGAATACTTTTGGTCTCCAGG (ssDNA, 2'-OMe C12) [12(31)]	87
CCTGGACGGAACCAGAATACTTTTGGTCTCCAGG (ssDNA, 2'-OMe T18) [12(17)]	83
CCTGGACGGAACCAGAATACTTTTGGTCTCCAGG (ssDNA, 2'-OMe C7,G9,A14,G15,A19,C20,A32,G33,G34; 5' idT, 3' idT) [12(24)]	96
CCTGGACGGAACCAGAATACTTTTGGTCTCCAGG (ssDNA, 2'-OMe T23,T24) [12(5)]	15
CCTGGACGGAACCAGAATACTTTTGGTCTCCAGG (ssDNA, 5' idT, 3' idT) [12(22)]	91
CCTGGACGGAACCAGAATACTTTTGGTCTCCAGG (ssDNA, 2'-OMe A32,G33,G34) [12(3)]	92
CCTGGACGGAACCAGAATACTTTTGGTCTCCAGG (ssDNA, 2'-OMe G9) [12(14)]	95
CCTGGACGGAACCAGAATACTTTTGGTCTCCAGG (ssDNA, 2'-OMe C12,C13) [12(4)]	82
CCTGGACGGAACCAGAATACTTTTGGTCTCCAGG (ssDNA, 2'-OMe A19) [12(18)]	93
CCTGGACGGAACCAGAATACTTTTGGTCTCCAGG (ssDNA, 2'-OMe A14,G15) [12(7)]	88
CCTGGACGGAACCAGAATACTTTTGGTCTCCAGG (ssDNA, 2'-OMe T29) [12(9)]	78
CCTGGACGGAACCAGAATACTTTTGGTCTCCAGG (ssDNA, 2'-OMe G25) [12(30)]	75
CCTGGACGGAACCAGAATACTTTTGGTCTCCAGG (ssDNA, 2'-OMe T24) [12(33)]	62
CCTGGACGGAACCAGAATACTTTTGGTCTCCAGG (ssDNA, 2'-OMe T3) [12(39)]	85
CCTGGACGGAACCAGAATACTTTTGGTCTCCAGG (ssDNA, 2'-OMe A16) [12(27)]	86
CCTGGACGGAACCAGAATACTTTTGGTCTCCAGG (ssDNA, 2'-OMe G5) [12(36)]	84
CCTGGACGGAACCAGAATACTTTTGGTCTCCAGG (ssDNA, 2'-OMe G26) [12(29)]	84
CCTGGACGGAACCAGAATACTTTTGGTCTCCAGG (ssDNA, 2'-OMe C20) [12(19)]	90
CCTGGACGGAACCAGAATACTTTTGGTCTCCAGG (ssDNA, 2'-OMe C31) [12(38)]	83
CCTGGACGGAACCAGAATACTTTTGGTCTCCAGG (ssDNA, 2'-OMe C2) [12(40)]	84

These binders were tested against autotaxin (ENPP2/NPP2) (Homo sapiens, UniProt Q13822 Q13822:36-863) (assay: inhibition; NPP2 assay, 37 C).

Binder	IC50 [nM]
B2	37
B3	30
GCTGGCCGGAACCGTGCATATGGTCGCCAGC (ssDNA) [SEQ 29 aptamer]	11
TACGCTCGGAACCGAGGCAATTGGTCAGCGTG (ssDNA) [SEQ 27 aptamer]	24
CTGGACGGAACCAGAATACTTTTGGTCTCCAG (ssDNA) [SEQ 16 aptamer]	18
B4	11
B5	21
B6	31
B7	28
B8	20
B9	75
B10	32
GGGACGGAACCAGAATACTTTTGGTCTCCC (ssDNA) [SEQ 14 aptamer]	42
B11	16
GTACTCATGGACGGAACCAGAATACTTTTGGTCTCCATTGAGTAC (ssDNA) [SEQ 11 aptamer]	12
CCTGGACGGAACCAGAATACTTTTGGTCTCCAGG (ssDNA) [SEQ 12 aptamer]	12
B12	36
